Experiments:
Experiment in all cases: cell-based or functional assay
[1] = target: HIV-1 Env of pseudovirus NIH-054_CNE53 (HIV-1)
[2] = target: HIV-1 Env of pseudovirus NIH-117_T278.5 (HIV-1)
[3] = target: HIV-1 Env of NIH-059_Q461ENVe2 (HIV-1)
[4] = target: HIV-1 Env of NIH-071_R1166.c01 (HIV-1)
[5] = target: HIV-1 Env of NIH-080_BJOX025000.01.1 (HIV-1)
[6] = target: HIV-1 Env of NIH-007_CAAN5342.A2 (HIV-1)
[7] = target: HIV-1 Env of pseudovirus NAC_RHPA4.7 (HIV-1)
[8] = target: HIV-1 Env of NAC_TRJO.58 (HIV-1)
[9] = target: HIV-1 Env of NIH-041_BF1266.431a (HIV-1)
[10] = target: HIV-1 Env of pseudovirus NAC_REJO.67 (HIV-1)
[11] = target: HIV-1 Env of pseudovirus NIH-068_620345.c01 (HIV-1)
[12] = target: HIV-1 Env of NIH-075_CNE8 (HIV-1)
[13] = target: HIV-1 Env of NAC_KNH1144 (HIV-1)
[14] = target: HIV-1 Env of pseudovirus NIH-043_ZM249M.B10 (HIV-1)
[15] = target: HIV-1 Env of NIH-039_Ce2060 G9 (HIV-1)
[16] = target: HIV-1 Env of NIH-032_HIV-16845.2.22 (HIV-1)
[17] = target: HIV-1 Env of pseudovirus NIH-001_6535.3 (HIV-1)
[18] = target: HIV-1 Env of pseudovirus NAC_WITO.33 (HIV-1)
[19] = target: HIV-1 Env of NIH-048_CNE19 (HIV-1)
[20] = target: HIV-1 Env of pseudovirus NIH-006_AC10.0.29 (HIV-1)
[21] = target: HIV-1 Env of isolate NIH-083_P0402 c2 11 (HIV-1)
[22] = target: HIV-1 Env of pseudovirus NIH-087_P1981 C5 3 (clade G) (HIV-1)
[23] = target: HIV-1 Env of NHI-028_CAP210.E8 (HIV-1)
[24] = target: HIV-1 Env of pseudovirus NIH-081_BJOX028000.10.3 (HIV-1)
[25] = target: HIV-1 Env of NIH-011_1056.10.TA11.1826 (HIV-1)
[26] = target: HIV-1 Env of NIH-035_Ce1176 A3 (HIV-1)
[27] = target: HIV-1 Env of NAC_DH12 (HIV-1)
[28] = target: HIV-1 Env of NAC_SF162 (HIV-1)
[29] = target: HIV-1 Env of NIH-107_T251.18 (HIV-1)
[30] = target: HIV-1 Env of NIH-051_CNE17 (HIV-1)
[31] = target: HIV-1 Env of pseudovirus NIH-118_T255.34 (HIV-1)
[32] = target: HIV-1 Env of pseudovirus NIH-083_P0402 c2 11 (clade G) (HIV-1)
[33] = target: HIV-1 Env of pseudovirus NIH-048_CNE19 (HIV-1)
[34] = target: HIV-1 Env of pseudovirus NAC_92BR020 (HIV-1)
[35] = target: HIV-1 Env of NIH-115_928.28 (HIV-1)
[36] = target: HIV-1 Env of NAC_93IN905 (HIV-1)
[37] = target: HIV-1 Env of NAC_JRFL (HIV-1)
[38] = target: HIV-1 Env of pseudovirus NIH-017_Du156.12 (HIV-1)
[39] = target: HIV-1 Env of NAC_92RW020 (HIV-1)
[40] = target: HIV-1 Env of NAC_ADA (HIV-1)
[41] = target: HIV-1 Env of NIH-012_1012.11.TC21.3257 (HIV-1)
[42] = target: HIV-1 Env of NIH-014_6244.13.B5.4567 (HIV-1)
[43] = target: HIV-1 Env of pseudovirus NIH-101_6540.v4.c1 (HIV-1)
[44] = target: HIV-1 Env of NIH-057_MS208.A1 (HIV-1)
[45] = target: HIV-1 Env of pseudovirus NAC_BG505 (HIV-1)
[46] = target: HIV-1 Env of pseudovirus NIH-009_1006.11.C3.1601 (HIV-1)
[47] = target: HIV-1 Env of NIH-034_Ce0393 C3 (HIV-1)

PGZL1 (antibody) was tested, and the neutralization IC50 [1] was 6 µg/mL, the neutralization IC50 [2] was 23.5 µg/mL and the IC80 neutralization [3] was > 50 µg/mL. For the same substance, the IC80 neutralization [4] was 19.5 µg/mL, the IC80 neutralization [5] was 29.3 µg/mL and the IC80 neutralization [6] was > 50 µg/mL. The neutralization IC50 [7] was > 50 µg/mL, the IC80 neutralization [8] was > 50 µg/mL and the IC80 neutralization [9] was > 50 µg/mL. For the same substance, the neutralization IC50 [10] was 10.7 µg/mL, the neutralization IC50 [11] was 12.6 µg/mL and the IC80 neutralization [12] was 0.945 µg/mL. For the same substance, the IC80 neutralization [13] was > 50 µg/mL, the neutralization IC50 [14] was 6.26 µg/mL and the IC80 neutralization [15] was > 50 µg/mL. It also gave an IC80 neutralization [16] of 2.47 µg/mL, a neutralization IC50 [17] of 1.42 µg/mL and a neutralization IC50 [18] of 3.56 µg/mL. The IC80 neutralization [19] was 12.1 µg/mL, the neutralization IC50 [20] was 4.64 µg/mL and the IC80 (µg/ml), TZM-bl pseudovirus neutralization [21] was 32.3 µg/mL. The IC50 (µg/ml), TZM-bl cell neutralization assay, pseudovirus [22] was 1.39 µg/mL, the IC80 neutralization [23] was > 50 µg/mL and the neutralization IC50 [24] was 5.16 µg/mL. For the same substance, the IC80 neutralization [25] was 14.9 µg/mL, the IC80 neutralization [26] was > 50 µg/mL and the IC80 neutralization [27] was 19 µg/mL. For the same substance, the IC80 neutralization [28] was 48.6 µg/mL, the IC80 neutralization [29] was > 50 µg/mL and the IC80 neutralization [30] was 48.6 µg/mL. The neutralization IC50 [31] was 3.35 µg/mL, the IC50 (µg/ml), TZM-bl cell neutralization assay, pseudovirus [32] was 8.29 µg/mL and the neutralization IC50 [33] was 3.12 µg/mL. For the same substance, the neutralization IC50 [34] was > 50 µg/mL, the IC80 neutralization [35] was 5.45 µg/mL and the IC80 neutralization [36] was 2.2 µg/mL. For the same substance, the IC80 neutralization [37] was > 50 µg/mL, the neutralization IC50 [38] was 0.623 µg/mL and the IC80 neutralization [39] was > 50 µg/mL. The IC80 neutralization [40] was 21.8 µg/mL, the IC80 neutralization [41] was > 50 µg/mL and the IC80 neutralization [42] was 5.19 µg/mL. The neutralization IC50 [43] was > 50 µg/mL, the IC80 neutralization [44] was 45.6 µg/mL and the neutralization IC50 [45] was 16.7 µg/mL. The neutralization IC50 [46] was 24.6 µg/mL and the IC80 neutralization [47] was > 50 µg/mL.

4E10 (antibody) was tested, and the neutralization IC50 [1] was 0.38 µg/mL, the neutralization IC50 [2] was 1.48 µg/mL and the IC80 neutralization [3] was 9.31 µg/mL. The IC80 neutralization [4] was 1.77 µg/mL, the IC80 neutralization [5] was 1.59 µg/mL and the IC80 neutralization [6] was 12.1 µg/mL. For the same substance, the neutralization IC50 [7] was 4.66 µg/mL, the IC80 neutralization [8] was 11.6 µg/mL and the IC80 neutralization [9] was 10 µg/mL. It also gave a neutralization IC50 [10] of 1.87 µg/mL, a neutralization IC50 [11] of 0.663 µg/mL and an IC80 neutralization [12] of 0.27 µg/mL. The IC80 neutralization [13] was 47.9 µg/mL, the neutralization IC50 [14] was 1.11 µg/mL and the IC80 neutralization [15] was 5.1 µg/mL. The IC80 neutralization [16] was 0.653 µg/mL, the neutralization IC50 [17] was 0.519 µg/mL and the neutralization IC50 [18] was 0.435 µg/mL. For the same substance, the IC80 neutralization [19] was 1.43 µg/mL, the neutralization IC50 [20] was 0.666 µg/mL and the IC80 (µg/ml), TZM-bl pseudovirus neutralization [21] was 0.363 µg/mL. The IC50 (µg/ml), TZM-bl cell neutralization assay, pseudovirus [22] was 0.099 µg/mL, the IC80 neutralization [23] was 3.53 µg/mL and the neutralization IC50 [24] was 0.45 µg/mL. For the same substance, the IC80 neutralization [25] was 2.81 µg/mL, the IC80 neutralization [26] was 7.36 µg/mL and the IC80 neutralization [27] was 4.89 µg/mL. It also gave an IC80 neutralization [28] of 8.26 µg/mL, an IC80 neutralization [29] of 3.97 µg/mL and an IC80 neutralization [30] of 2.23 µg/mL. For the same substance, the neutralization IC50 [31] was 0.326 µg/mL, the IC50 (µg/ml), TZM-bl cell neutralization assay, pseudovirus [32] was 0.084 µg/mL and the neutralization IC50 [33] was 0.31 µg/mL. For the same substance, the neutralization IC50 [34] was 2.57 µg/mL, the IC80 neutralization [35] was 0.438 µg/mL and the IC80 neutralization [36] was 0.472 µg/mL. For the same substance, the IC80 neutralization [37] was > 50 µg/mL, the neutralization IC50 [38] was 0.101 µg/mL and the IC80 neutralization [39] was 9.61 µg/mL. The IC80 neutralization [40] was 3.34 µg/mL, the IC80 neutralization [41] was 8.25 µg/mL and the IC80 neutralization [42] was 0.373 µg/mL. For the same substance, the neutralization IC50 [43] was 5.63 µg/mL, the IC80 neutralization [44] was 2.86 µg/mL and the neutralization IC50 [45] was 1.15 µg/mL. It also gave a neutralization IC50 [46] of 5.66 µg/mL and an IC80 neutralization [47] of 2.56 µg/mL.

With VRC01 (antibody) the neutralization IC50 [1] was 0.042 µg/mL, the neutralization IC50 [2] was > 50 µg/mL and the IC80 neutralization [3] was 0.776 µg/mL. The IC80 neutralization [4] was 1.95 µg/mL, the IC80 neutralization [5] was 24.8 µg/mL and the IC80 neutralization [6] was 2.79 µg/mL. It also gave a neutralization IC50 [7] of 0.035 µg/mL, an IC80 neutralization [8] of 0.223 µg/mL and an IC80 neutralization [9] of 0.11 µg/mL. The neutralization IC50 [10] was 0.106 µg/mL, the neutralization IC50 [11] was > 50 µg/mL and the IC80 neutralization [12] was 0.514 µg/mL. For the same substance, the IC80 neutralization [13] was 0.535 µg/mL, the neutralization IC50 [14] was 0.071 µg/mL and the IC80 neutralization [15] was 0.45 µg/mL. The IC80 neutralization [16] was 4.25 µg/mL, the neutralization IC50 [17] was 0.946 µg/mL and the neutralization IC50 [18] was 0.055 µg/mL. It also gave an IC80 neutralization [19] of 0.512 µg/mL, a neutralization IC50 [20] of 0.867 µg/mL and an IC80 (µg/ml), TZM-bl pseudovirus neutralization [21] of 0.164 µg/mL. The IC50 (µg/ml), TZM-bl cell neutralization assay, pseudovirus [22] was 0.203 µg/mL, the IC80 neutralization [23] was > 50 µg/mL and the neutralization IC50 [24] was 0.141 µg/mL. It also gave an IC80 neutralization [25] of 1.48 µg/mL, an IC80 neutralization [26] of 4.99 µg/mL and an IC80 neutralization [27] of 0.898 µg/mL. It also gave an IC80 neutralization [28] of 1.03 µg/mL, an IC80 neutralization [29] of 8.63 µg/mL and an IC80 neutralization [30] of 0.904 µg/mL. The neutralization IC50 [31] was 0.229 µg/mL, the IC50 (µg/ml), TZM-bl cell neutralization assay, pseudovirus [32] was 0.04 µg/mL and the neutralization IC50 [33] was 0.127 µg/mL. For the same substance, the neutralization IC50 [34] was 0.059 µg/mL, the IC80 neutralization [35] was 0.99 µg/mL and the IC80 neutralization [36] was 0.28 µg/mL. For the same substance, the IC80 neutralization [37] was 0.741 µg/mL, the neutralization IC50 [38] was 0.059 µg/mL and the IC80 neutralization [39] was 0.811 µg/mL. It also gave an IC80 neutralization [40] of 1.31 µg/mL, an IC80 neutralization [41] of 0.318 µg/mL and an IC80 neutralization [42] of 0.193 µg/mL. The neutralization IC50 [43] was > 50 µg/mL, the IC80 neutralization [44] was 0.252 µg/mL and the neutralization IC50 [45] was 0.056 µg/mL. It also gave a neutralization IC50 [46] of 0.145 µg/mL and an IC80 neutralization [47] of 1.46 µg/mL.

Source: patent US20240124560A1
